Columns and labels:
[1] = biological target: cyclooxygenase-2 (COX-2), endogenous in human neutrophils (human (endogenous in neutrophils)) (UniProt P35354)
[2] = biological target: cyclooxygenase-2 (COX-2), endogenous in human neutrophils (human (endogenous in neutrophils)) (UniProt P35354); remark: listed apart in the source

UniProt P35354, sequence (P35354 18-604): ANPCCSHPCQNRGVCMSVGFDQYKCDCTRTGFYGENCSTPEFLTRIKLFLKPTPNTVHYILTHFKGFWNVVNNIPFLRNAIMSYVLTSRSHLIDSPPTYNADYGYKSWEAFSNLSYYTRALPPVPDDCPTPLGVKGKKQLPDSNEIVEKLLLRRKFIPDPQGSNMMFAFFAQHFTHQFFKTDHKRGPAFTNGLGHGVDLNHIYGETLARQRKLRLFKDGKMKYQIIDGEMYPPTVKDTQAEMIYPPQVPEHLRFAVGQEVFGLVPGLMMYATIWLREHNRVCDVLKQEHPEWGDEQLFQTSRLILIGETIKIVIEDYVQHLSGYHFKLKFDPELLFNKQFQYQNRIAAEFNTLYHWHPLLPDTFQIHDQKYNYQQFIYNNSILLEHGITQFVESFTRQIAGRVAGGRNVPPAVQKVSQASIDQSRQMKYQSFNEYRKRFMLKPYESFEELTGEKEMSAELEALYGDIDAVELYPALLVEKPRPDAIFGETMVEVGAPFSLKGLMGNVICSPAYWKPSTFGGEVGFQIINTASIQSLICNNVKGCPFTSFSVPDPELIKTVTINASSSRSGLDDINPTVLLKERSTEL

In the case of “human recombinant nucleobindin (hrNuc), full length (from UniProt Q02818 27-461) (natural protein)”, the PGE2 production (ELISA) from arachidonic acid (10 µM) by purified human recombinant COX-2 (1 U/sample, Cayman) with increasing amounts of hrNuc (fold over basal levels) [1] was 4 and the PGE2 production (ELISA) from arachidonic acid (10 µM) by lysates of COX-2-expressing neutrophils with increasing quantities of hrNuc [2] was 5 fold.

From PMC2373884
